# Test results reported in FireProtDB (doi:10.1074/jbc.272.30.18686).
# B1: Ribonuclease HI, P0A7Y4 (parent)
# chain: MLKQVEIFTDGSCLGNPGPGGYGAILRYRGREKTFSAGYTRTTNNRMELMAAIVALEALKEHCEVILSTDSQYVRQGITQWIHNWKKRGWKTADKKPVKNVDLWQRLDAALGQHQIKWEWVKGHAGHPENERCDELARAAAMNPTLEDTGYQVEV
# Variants of: B1
# Conditions: Escherichia coli (strain K12), pH 3.2, Thermal, CD, glycine-HCl 10 mM, reversible: yes, structure 2RN2, whole UniProt chain shown; for ddG of mutation (higher = less stable): 53 °C
Variant,ddG of mutation (higher = less stable),Tm,"change of melting temperature, mutant - wild type (higher = more stable)",unfolding enthalpy (van 't Hoff)
A52C,-0.8 kcal/mol,55.5 °C,2.5 °C,128 kcal/mol
A52D,1.9 kcal/mol,–,–,–
A52E,1.5 kcal/mol,–,–,–
A52F V74L,-0.03 kcal/mol,53.1 °C,0.1 °C,99.8 kcal/mol
A52G V74L,1.4 kcal/mol,48.4 °C,-4.6 °C,97.8 kcal/mol
A52I,-1.9 kcal/mol,59.2 °C,6.2 °C,84.8 kcal/mol
A52I V74A,-1.19 kcal/mol,56.9 °C,3.9 °C,102 kcal/mol
A52I V74L,-1.19 kcal/mol,56.9 °C,3.9 °C,122 kcal/mol
A52K,5.9 kcal/mol,33.5 °C,-19.5 °C,70.8 kcal/mol
A52L,-1.3 kcal/mol,–,–,–
A52L V74A,-0.36 kcal/mol,54.2 °C,1.2 °C,105 kcal/mol
A52L V74L,-1.49 kcal/mol,57.9 °C,4.9 °C,118 kcal/mol
A52M,-0.5 kcal/mol,54.6 °C,1.6 °C,112 kcal/mol
A52N,1.8 kcal/mol,47.1 °C,-5.9 °C,95.6 kcal/mol
A52P,1.6 kcal/mol,47.6 °C,-5.4 °C,93 kcal/mol
A52Q,1.2 kcal/mol,49.1 °C,-3.9 °C,90.3 kcal/mol
A52S,1.8 kcal/mol,47.2 °C,-5.8 °C,118 kcal/mol
A52T,0.8 kcal/mol,50.3 °C,-2.7 °C,108 kcal/mol
A52V,-1.7 kcal/mol,58.5 °C,5.5 °C,128 kcal/mol
A52V V74A,0.52 kcal/mol,51.3 °C,-1.7 °C,107 kcal/mol
A52V V74L,-2.43 kcal/mol,61 °C,8.07 °C,126 kcal/mol
A52Y,2.3 kcal/mol,45.4 °C,-7.6 °C,70.8 kcal/mol
A52F,–,51.5 °C,-1.5 °C,89 kcal/mol
A52F V74A,–,48.4 °C,-4.6 °C,85.8 kcal/mol
A52G,–,44.1 °C,-8.9 °C,91 kcal/mol
A52H,–,41.2 °C,-11.8 °C,84.7 kcal/mol
